Test results as given in patent US12662540B2, “Compositions and methods for inhibition of MICA/B shedding” (DANA-FARBER CANCER INSTITUTE, INC., priority 2017, dated 2026).

How the values were obtained:
[1] = tested on: B16F10-MICA cells; assay: Mouse NK cell transfer and B16F10-MICA metastases in Rag2−/− Il2rg−/− mice; format: in vivo
Description: NK cell adoptive transfer was done as described previously (25). Briefly, NK cells from mice of indicated genotypes were isolated from the spleen, enriched by negative selection, and sorted to achieve an NK cell purity of ˜99%. Subsequently, 2×10^5 NK cells were injected intravenously into Rag2^−/− IL2rg^−/− mice. Three days later, reconstitution was checked in blood samples by flow cytometry, and no differences in NK cell frequency were observed among the NK cell genotypes. Subsequently, 4×10^5 B16F10-MICA cells (with luciferase reporter) were injected intravenously (day 0). On days 1, 2, 7, and 10, mice received 200 μg 7C6-mIgG2b or MPC-11 (isotype control) by intraperitoneal injection. Mice were bled at the indicated time points. Euthanasia by CO2 inhalation was performed on day 14 followed by counting of superficial lung metastases as described above.

[2] = tested on: A375 cells; assay: NK cell cytotoxicity assay (51Cr release), human NK cells against human tumor cells; format: cell-based; settings: human NK cells; antibody added at time of killing assay (10 μg/ml, 66.7 nM)
Description: Human NK cells were isolated from fresh leukapheresis blood collars that had been generated by Brigham & Women's Hospital, Boston, from healthy donors. Samples were diluted with an equal volume of PBS and blood mononuclear cells were isolated by Ficoll density gradient centrifugation. Cells were washed with PBS, and NK cells were isolated by negative selection using the Human NK Cell Isolation Kit (130-092-657, Miltenyi Biotech) using an autoMACS system (Miltenyi Biotech). Enriched NK cells (purity of 50-90%) were then incubated with anti-CD56 (PE or APC conjugated) and anti-CD3 (FITC or Pacific Blue conjugated) (Biolegend) and sorted using a BD FACS Aria. Following sorting, NK cell purity was ˜99%. These cells were cultured for twelve hours in complete RPMI media supplemented with 300-1000 U/ml of recombinant human IL-2 (BD Pharmingen).
Target cells were labeled for 1 hour with 100 μCi of ^51[Cr] per 2×10^6 cells in 0.2 ml of media. Subsequently, cells were washed and plated in V-bottom 96-wells plates (5,000 target cells per well). To determine the experimental release, NK cells were added in an equal volume, but at different ratios. To determine maximum and spontaneous release, target cells were mixed with an equal volume of 2% Triton-X100 in PBS or an equal volume of media, respectively. Antibodies were added at a final concentration of 10 μg/ml.
For experiments shown in FIGS. 1E, 10, and 13E antibodies were added at the time of the killing assay. For FIGS. 3A-B, antibodies were added to tumor cells 48 hours prior to labelling with ^51[Cr] to inhibit MICAS shedding. The isotype control antibody for assays with human NK cells was recombinant human IgG1 Fc (BE0096, BioXcell). […] At the end of the incubation period, plates were centrifuged (2000 rpm, 5 minutes), part of the supernatant was collected, mixed with scintillation fluid, and radioactivity was quantified using a MicroBeta2 reader (Perkin Elmer). Specific killing was calculated using the following formula: 100×(Experimental release−Spontaneous release)/(Maximum release−Spontaneous release).

[3] = tested on: A375 human melanoma cell line; assay: Dacarbazine combination with MICA/B antibody, A375 cells; format: cell-based
[4] = tested on: B16F10-MICA lung metastases; assay: Flow cytometry-based analysis of immune and tumor cells in lung tissue; format: in vivo, C57BL/6 mice
Description: Wild-type mice were injected with 1×10^6 B16F10 cells that were previously transduced with ZsGreen-based lentiviral vectors (full-length MICA, secreted MICA or empty vector). In some experiments, mice received a lower dose of B16F10-MICA tumor cells (7×10^5). On days 1, 2, 7 and 10 following B16F10-MICA cell injection, mice received 200 μg of 7C6-mIgG2a or isotype control (C1184) antibodies by intraperitoneal injection. Prior to euthanasia, mice received an intravenous injection of 50 μl of APC-conjugated anti-CD45.2 (clone104, Biolegend) to label intravascular immune cells. Approximately 5 minutes later, mice were euthanized by CO2 inhalation and cell suspensions were generated from lung tissue. Lungs were cut into small pieces which were re-suspended in 10 ml of RPMI-1640 supplemented with 1 mg/ml collagenase type IV, 0.1 mg/ml hyaluronidase, and 20 U/ml DNase type IV. Samples were dissociated in a gentleMACS instrument (Miltenyi) using the program 37C_m_LDK 1 which digests the tissue by incubation with 37° C. followed by mechanical dissociation. Cells were then washed with PBS, Fc receptors were blocked with Mouse True Stain FcX (Biolegend), and cells were stained with PE-Cy7 or v450-conjugated anti-CD45.2 (104), PE or BV785-NK1.1 (PK136), PerCP-Cy5.5 or Alexa^700-NKp46 (29A1.4), APC or APC-Cy7-CD3c (145.2C11), APC or BV511-TCRβ, PE-Cy5 or Alexa^488-CD69 (H1.2F3), BV421-NKG2D (CX5), BV510-Ly49C (5E6), BV570-CD62L (MEL-14), BV605-CD49a (Ha31/8), Alexa^488-EOMES (Dan11mag), PE-Granzyme A (GzA-3G8.5), PE or PERCP-Cy5.5-CD16/CD32 (93), PE-Cy7-Granzyme B (NGZB), BV510-DNAM-1 (10E5), Alexa^488-KLRG1 (2F1), PE-CXCR6 (SA051D1), PERCP-Cy5.5 or PE-Cy7-CD127 (A7R34), BV510-CXCR3 (CXCR3-173), Zombie NIR, Zombie Yellow or Zombie UV (all from Biolegend, BD Pharmigen or eBiosciences). For transcription factor staining, cells were fixed and permeabilized by a Transcription Factor Buffer kit (BDB562574). For Fc receptor staining, small aliquots of cells from the lung suspensions were separated and stained with PE or PerCP-Cy5.5-CD16/32 antibody (the incubation with Mouse True Stain FcX was skipped in that aliquot of cells). Tumor cells were stained with APC-conjugated anti-H2-Kb (AF6-88.5, Biolegend) and BV650-activated Caspase-3 (C92-605, BD Pharmingen) following permeabilization. Even though the CD45.2 antibody given intravenously and the anti-H2-Kb antibody were conjugated to the same fluorophore (APC), B16F10 cells could be identified based on their larger size, ZsGreen expression as well as the absence of CD45.2 expression. Samples were acquired using a LSR Fortessa, CytoFLEX or a Sony Spectral Analyzer and analyzed by FlowJo V10 software.

B1: 7C6: monoclonal antibody from mice immunized with recombinant MICA α3 domain; parental mIgG2b; VH SEQ ID NO: 7, VL SEQ ID NO: 8 (antibody)
VH: QIQLVQSGPELKKPGETVKVSCKASGYMFTNYAMNWVKQAPEKGLKWMGWINTHTGDPTYADDFKGRIAFSLETSASTAYLQINNLKNEDTATYFCVRTYGNYAMDYWGQGTSVTVSSAKTTAPSVYPLAPVCGDTTGSSVTLGCLVKGYFPEPVTLTWNSGSLSSGVHTFPAVLQSDLYTLSSSVTVTSS
VL: DIQMTQTTSSLSASLGDRVTISCSASQDISNYLNWYQQKPDGTVKLLIYDTSILHLGVPSRFSGSGSGTDYSLTISNLEPEDIATYYCQQYSKFPRTFGGGTTLEIK
modifications: mAb 7C6 heavy chain amino acid sequence; mAb 7C6 light chain amino acid sequence
[1]; day 14
  lung metastases after transfer of NK cells deficient in either NKG2D (Klrk1) or CD16 (Fcgr3a): therapeutic effect was maintained (but more variable)
  lung metastases after transfer of NK cells lacking both NKG2D and CD16: antibody therapy was ineffective
  lung metastases after transfer of WT NK cells: most consistent reduction in the number of lung metastases
[1]; mouse, in vivo
  serum shed MICA after transfer of NK cells lacking both NKG2D and CD16: shed MICA was still reduced
[2]
  NK cell mediated cytotoxicity against human tumor cells: increases NK cell cytotoxicity
[3]; 30 mM dacarbazine, 10 μg/ml 7C6, 48 hours
  human NK cell killing of A375 cells, dacarbazine combination with MICA/B antibody: is increased by dacarbazine combination with MICA/B antibody
[3]; A375, 48 hours, 10 μg/ml antibody with dacarbazine
  MICA/B shedding (6D4-PE staining): inhibited MICA/B shedding
[4]; lung metastases
  H2-Kb (MHC class I) expression by tumor cells: MHC class I upregulation
  apoptosis of tumor cells (active caspase-3): massive tumor cell apoptosis
[4]; mouse, in vivo
  B16F10-MICA tumor cells within lung tissue (percentage, absolute numbers): substantial reduction of tumor cell load within lung tissue
[4]; versus isotype control
  NKG2D levels on lung-infiltrating NK cells: restored NKG2D levels by lung NK cells
